For four molecules, binding result and Kd results are on record in article PMC5253658, “SCIMP is a transmembrane non-TIR TLR adaptor that promotes proinflammatory cytokine production from macrophages” (Nature Communications, 2017).

The target of assay [1] is T1, His-TLR4-TIR (cytoplasmic TIR domain of mouse TLR4, amino acids 670-835) (mouse, UniProt Q9QUK6 670-835).
T1 construct: TLR4, mouse, cytoplasmic TIR domain, amino acids 670-835; codon-optimized gene from Genscript; subcloned into pET28a; also called His-tagged TLR4-TIR domain; recombinant TLR4-TIR; source: E. coli, purified (Ni-NTA)
T1 sequence (looked up): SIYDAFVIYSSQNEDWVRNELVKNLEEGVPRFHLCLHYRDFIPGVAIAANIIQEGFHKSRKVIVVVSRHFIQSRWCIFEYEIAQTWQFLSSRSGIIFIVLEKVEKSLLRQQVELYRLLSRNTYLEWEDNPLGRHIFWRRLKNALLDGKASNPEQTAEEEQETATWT
Nature of the assay: pull-down; GST-SCIMP (T1, T2 or T1 mutants) as bait, recombinant His-TLR4-TIR as prey; immunoblot against the His tag. Particulars: both partners purified.

The target in assay [2] is T1, His-TLR4-TIR (cytoplasmic TIR domain of …). The assay is described as follows: other fluorescence titration; BODIPY FL-labelled SCIMP-T1 titrated with unlabelled TLR4-TIR; 25 °C, 30 mM Tris pH 7.4, 150 mM NaCl, 1 mM dithiothreitol; curve fit (Grafit). Particulars: both partners purified.

B1: GST-SCIMP-T2 (C terminal region of murine SCIMP, amino acids 93-150) (domain or fragment)
chain: not shown
notes: SCIMP, mouse, C terminal region, amino acids 93-150; lacks the PRD; subcloned into pGEX6p-1; source: E. coli, purified (glutathione-Sepharose beads)
In the case of B1, in assay [1], the binding result is “binds”.

B2: GST-SCIMP-T1 Y96F (domain or fragment)
chain: not shown
notes: SCIMP, mouse, T1, amino acids 29-150, Y96F; also called (unphosphorylated) Y96F SCIMP mutant; source: E. coli, purified (glutathione-Sepharose beads)
For the molecule B2, the binding result in assay [1] is recorded as “binds”.

B3: fluorescently labelled recombinant SCIMP-T1 (BODIPY FL) (domain or fragment)
chain: not shown
modifications: labelled with BODIPY FL Iodoacetamide
notes: SCIMP, mouse, T1, amino acids 29-150; also called labelled SCIMP; fluorescently labelled SCIMP-T1; source: E. coli, purified
A word on the Kd: it is the concentration at which binding is half-saturated. Higher therefore signals weaker binding. In turn, B3 gave a Kd in assay [2] of 212 nM.

B4: GST-SCIMP-T1 (entire intracellular region of murine SCIMP, amino acids 29-150) (domain or fragment)
chain: not shown
notes: subcloned into pGEX6p-1; also called SCIMP-GST; source: E. coli, purified (glutathione-Sepharose beads)
With B4, the binding result in assay [1] was “binds”.
